Data as given in patent US20140037621A1 (JN BIOSCIENCES, published 2014).

These binders were tested against death receptor 4 (DR4) on the cell surface (Ramos, Colo-205, RPMI 8226 cells) (human, UniProt O00220 24-468) (assay: cell-based or functional assay).

Binder | cell viability of Ramos cells at 100 ng/ml of antibody (alamarBlue) [%] | cell killing of Ramos cells at 100 ng/ml of antibody (alamarBlue) [%] | viability of Colo-205 cells at 100 ng/ml of antibody (alamarBlue) [%]
HuYON007.V279-Fcµtp monomer (antibody, human IgG1, lambda) heavy: not shown light: QTVVTQEPSFSVSPGGTVTLTCRSSSGAVTTSNFANWVQQTPGQAPRGLIGGTNNRAPGVPDRFSGSILGNKAALTITGAQADDESDYYCALWYSNHWVFGGGTKLTVLGQPKAAPSVTLFPPSSEELQANKATLVCLISDFYPGAVTVAWKADSSPVKAGVETTTPSKQSNNKYAASSYLSLTPEQWKSHRSYSCQVTHEGSTVEKTVAPTECS | 80 |  | 
HuYON007.V279-Fcµtp multimer (antibody, human IgG1, lambda) heavy: not shown light: QTVVTQEPSFSVSPGGTVTLTCRSSSGAVTTSNFANWVQQTPGQAPRGLIGGTNNRAPGVPDRFSGSILGNKAALTITGAQADDESDYYCALWYSNHWVFGGGTKLTVLGQPKAAPSVTLFPPSSEELQANKATLVCLISDFYPGAVTVAWKADSSPVKAGVETTTPSKQSNNKYAASSYLSLTPEQWKSHRSYSCQVTHEGSTVEKTVAPTECS |  | ~100 | < 35
HuYON007.H285-Fcµtp multimer (antibody, human IgG1, lambda) heavy: not shown light: QTVVTQEPSFSVSPGGTVTLTCRSSSGAVTTSNFANWVQQTPGQAPRGLIGGTNNRAPGVPDRFSGSILGNKAALTITGAQADDESDYYCALWYSNHWVFGGGTKLTVLGQPKAAPSVTLFPPSSEELQANKATLVCLISDFYPGAVTVAWKADSSPVKAGVETTTPSKQSNNKYAASSYLSLTPEQWKSHRSYSCQVTHEGSTVEKTVAPTECS |  | ~100 | < 35
HuYON007.A287-Fcµtp monomer (antibody, human IgG1, lambda) heavy: not shown light: QTVVTQEPSFSVSPGGTVTLTCRSSSGAVTTSNFANWVQQTPGQAPRGLIGGTNNRAPGVPDRFSGSILGNKAALTITGAQADDESDYYCALWYSNHWVFGGGTKLTVLGQPKAAPSVTLFPPSSEELQANKATLVCLISDFYPGAVTVAWKADSSPVKAGVETTTPSKQSNNKYAASSYLSLTPEQWKSHRSYSCQVTHEGSTVEKTVAPTECS | 83 |  | 
HuYON007.L309-Fcµtp multimer (antibody, human IgG1, lambda) heavy: not shown light: QTVVTQEPSFSVSPGGTVTLTCRSSSGAVTTSNFANWVQQTPGQAPRGLIGGTNNRAPGVPDRFSGSILGNKAALTITGAQADDESDYYCALWYSNHWVFGGGTKLTVLGQPKAAPSVTLFPPSSEELQANKATLVCLISDFYPGAVTVAWKADSSPVKAGVETTTPSKQSNNKYAASSYLSLTPEQWKSHRSYSCQVTHEGSTVEKTVAPTECS |  | ~100 | < 35
HuYON007.H285-Fcµtp monomer (antibody, human IgG1, lambda) heavy: not shown light: QTVVTQEPSFSVSPGGTVTLTCRSSSGAVTTSNFANWVQQTPGQAPRGLIGGTNNRAPGVPDRFSGSILGNKAALTITGAQADDESDYYCALWYSNHWVFGGGTKLTVLGQPKAAPSVTLFPPSSEELQANKATLVCLISDFYPGAVTVAWKADSSPVKAGVETTTPSKQSNNKYAASSYLSLTPEQWKSHRSYSCQVTHEGSTVEKTVAPTECS | 91 |  | 
HuYON007.L309-Fcµtp monomer (antibody, human IgG1, lambda) heavy: not shown light: QTVVTQEPSFSVSPGGTVTLTCRSSSGAVTTSNFANWVQQTPGQAPRGLIGGTNNRAPGVPDRFSGSILGNKAALTITGAQADDESDYYCALWYSNHWVFGGGTKLTVLGQPKAAPSVTLFPPSSEELQANKATLVCLISDFYPGAVTVAWKADSSPVKAGVETTTPSKQSNNKYAASSYLSLTPEQWKSHRSYSCQVTHEGSTVEKTVAPTECS | 92 |  | 
HuYON007.A287-Fcµtp multimer (antibody, human IgG1, lambda) heavy: not shown light: QTVVTQEPSFSVSPGGTVTLTCRSSSGAVTTSNFANWVQQTPGQAPRGLIGGTNNRAPGVPDRFSGSILGNKAALTITGAQADDESDYYCALWYSNHWVFGGGTKLTVLGQPKAAPSVTLFPPSSEELQANKATLVCLISDFYPGAVTVAWKADSSPVKAGVETTTPSKQSNNKYAASSYLSLTPEQWKSHRSYSCQVTHEGSTVEKTVAPTECS |  | ~100 | < 35

What follows are binders tested against T1, CD30 on the surface of Karpas 299 cells (human, UniProt P28908 19-595) (assay: cell-based or functional assay).
T1 sequence (looked up): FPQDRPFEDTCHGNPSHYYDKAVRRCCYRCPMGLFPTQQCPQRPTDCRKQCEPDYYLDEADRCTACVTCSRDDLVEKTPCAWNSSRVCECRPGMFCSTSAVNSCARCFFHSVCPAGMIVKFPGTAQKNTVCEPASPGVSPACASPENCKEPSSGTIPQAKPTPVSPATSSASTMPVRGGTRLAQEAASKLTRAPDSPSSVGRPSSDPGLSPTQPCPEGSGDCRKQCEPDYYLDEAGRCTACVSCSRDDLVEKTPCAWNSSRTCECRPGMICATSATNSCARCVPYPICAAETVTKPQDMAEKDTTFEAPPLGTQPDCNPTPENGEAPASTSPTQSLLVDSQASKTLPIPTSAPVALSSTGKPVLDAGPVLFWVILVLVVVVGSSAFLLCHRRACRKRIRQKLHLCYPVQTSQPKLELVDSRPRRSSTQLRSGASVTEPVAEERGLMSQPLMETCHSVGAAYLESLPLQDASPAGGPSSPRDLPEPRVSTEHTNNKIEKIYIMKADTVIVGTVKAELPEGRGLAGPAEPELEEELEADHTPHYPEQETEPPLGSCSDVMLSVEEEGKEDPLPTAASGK

growth level of Karpas 299 cells (percent cell growth, WST-8, 2 µg/ml antibody, 5 days) [%] | Binder
106 | ChSan11 IgG1/kappa antibody (mouse-human chimeric anti-human CD30) (antibody) heavy: not shown VL: DIVLTQSPASLAVSLGQRATISCRASESVEYYGTGLMQWYQQKPGQPPKLLIYSASNVESGVPARFTGSGSGTDFSLNIHPVEEDDIAMYFCQQSRKVPWTFGGGTKLEIKR
39 | ChSan11.H285-Fcµtp multimer (antibody, human IgG1) heavy: not shown VL: DIVLTQSPASLAVSLGQRATISCRASESVEYYGTGLMQWYQQKPGQPPKLLIYSASNVESGVPARFTGSGSGTDFSLNIHPVEEDDIAMYFCQQSRKVPWTFGGGTKLEIKR
41 | ChSan11.V279-Fcµtp multimer (antibody, human IgG1) heavy: not shown VL: DIVLTQSPASLAVSLGQRATISCRASESVEYYGTGLMQWYQQKPGQPPKLLIYSASNVESGVPARFTGSGSGTDFSLNIHPVEEDDIAMYFCQQSRKVPWTFGGGTKLEIKR
38 | ChSan11.L309-Fcµtp multimer (antibody, human IgG1) heavy: not shown VL: DIVLTQSPASLAVSLGQRATISCRASESVEYYGTGLMQWYQQKPGQPPKLLIYSASNVESGVPARFTGSGSGTDFSLNIHPVEEDDIAMYFCQQSRKVPWTFGGGTKLEIKR
43 | ChSan11.A287-Fcµtp multimer (antibody, human IgG1) heavy: not shown VL: DIVLTQSPASLAVSLGQRATISCRASESVEYYGTGLMQWYQQKPGQPPKLLIYSASNVESGVPARFTGSGSGTDFSLNIHPVEEDDIAMYFCQQSRKVPWTFGGGTKLEIKR
